Test results published in the supplement of paper PMC10567573.

B1: NET1 (parent)
chain: PTPAKRRSSALWSEMLDITMKESL
B2: MYBL2 (parent)
chain: IAKHLKGRLGKQCRERWHNHLNPE

Variants of: B1
Test: protein stability index of a GFP-peptide fusion (GPS, HEK-293T) (PSI 1-6); higher = more stable
Details: c terminus: a fixed tail appended
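Further: lentivirally expressed fusions sorted by FACS into six bins by GFP to DsRed ratio, PSI derived from sequencing read proportions per bin multiplied by bin number.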

Protein stability index, by site and new letter:
S23: P 2.63; Q 2.47; T 1.89; V 1.88; W 3.71; Y 1.9
L24: A 2.59; C 2.6; D 2.48; E 1.31; F 1.89; G 2.47; I 2.29; K 3.05; M 2.28; N 3.01; P 2.85; Q 1.92; T 2.2; V 2.33; W 1.36; Y 1.88

Variants of: B2
Test: as above
Details: c terminus: a fixed tail appended

Protein stability index of substitutions, site by site:
I1: A 2.37; C 1.49; D 2.06; E 2.53; F 2.7; G 2.4; H 2.19; K 2.18; L 1.67; M 2.58; N 2.45; P 2.6; Q 2.64; R 2.1; S 2.17; T 2.64; V 2.54; W 1.36; Y 1.56
A2: C 1.8; D 2.15; E 2.16; G 1.95; H 2.04; I 1.59; K 2.12; L 3.74; M 1.6; N 2.2; P 1.75; Q 2.03; R 2.53; S 2.1; T 2.37; V 1.53; W 1.64; Y 1.76
K3: A 2.84; C 2.25; D 2.3; E 2; F 2.46; G 1.79; H 2.32; I 1.51; L 2.34; M 1.81; N 1.8; P 1.93; Q 2.96; R 2.03; S 1.44; T 1.81; V 2.9; W 1.95; Y 2.17
H4: A 2.33; C 3.5; D 2.74; E 2.04; F 2.52; G 2.2; K 2.12; L 2.33; M 1.83; N 1.57; P 2.15; Q 2.27; R 2.17; S 1.73; T 1.87; V 3.2; W 1.76; Y 4.85
L5: A 2.18; C 1.9; D 2.7; E 2.49; F 1.67; G 2.04; H 2.51; I 1.75; K 2.49; M 1.72; N 2.38; P 2.07; Q 1.87; R 2.7; S 2.29; T 2.35; V 2.18; W 1.84; Y 1.86
K6: A 1.7; C 2.59; D 2.46; E 1.55; F 2.94; G 1.67; H 1.91; L 4.25; M 1.97; N 2.21; P 2.03; Q 1.56; R 1.67; S 1.81; T 2.21; V 2.45; W 1.27; Y 1.77
G7: A 2.94; C 1.6; D 2.61; E 1.88; F 2.25; H 3.17; I 2.31; K 1.77; L 2.71; M 1.77; N 1.82; P 2.14; Q 1.65; R 2.2; S 2.39; T 2.25; V 2.45; W 2.74; Y 2.14
R8: A 1.97; C 2.23; D 2.41; E 2.14; G 1.81; H 1.91; I 1.53; K 2.11; M 1.74; N 1.61; P 2.65; Q 1.76; S 1.8; T 1.63; V 1.6; W 2.73; Y 1.9
L9: A 1.76; C 2.08; D 3.01; E 2.73; F 1.7; G 2.45; H 2; I 1.43; K 2.5; M 2.45; N 2.31; P 2.28; Q 2.06; R 2.72; S 2.55; T 1.99; V 2.18; W 1.67; Y 2.24
G10: A 1.92; C 1.74; D 1.83; E 1.48; F 3.24; H 1.35; I 2.44; K 1.61; L 1.94; N 2.52; P 2.22; Q 1.96; R 1.67; S 1.99; T 2.16; V 2.54; W 2.56; Y 2.49
K11: A 2.06; C 2.09; D 2.47; E 2.46; F 1.4; G 3.92; H 2.41; I 1.97; L 2.36; M 2.69; N 2.43; P 1.75; Q 1.79; R 1.95; S 2.43; T 1.67; V 2.12; W 2.44; Y 2.02
Q12: A 1.29; C 2.53; D 1.93; E 1.92; F 2.08; G 3.02; H 2.38; I 2.97; K 1.51; L 2.32; M 1.92; N 1.38; P 1.54; R 2.44; S 2.77; T 1.55; V 1.61; W 1.93; Y 2.33
C13: A 2.55; D 2.57; E 2.68; F 1.65; G 2.54; H 2.33; I 2.58; K 2.34; L 1.87; M 2.01; N 3.21; P 2.57; Q 1.96; R 2.3; S 2.14; T 2.08; V 1.97; W 2.19; Y 1.64
R14: A 2; C 1.77; D 2.56; E 2.59; F 1.47; G 2.03; H 2.3; I 1.83; K 1.87; L 1.63; M 1.29; N 2.62; P 2.64; Q 2.52; S 1.5; T 2.61; V 1.74; W 1.82; Y 2.12
E15: A 2.17; C 2.38; D 1.73; F 2.26; G 1.9; H 1.25; I 1.96; K 2.18; L 2.48; M 3.02; N 1.69; P 1.63; Q 1.49; R 1.96; S 1.23; T 2.5; V 2.12; W 3.6; Y 2.12
R16: A 2.21; C 2.13; D 2.08; E 2.58; F 2.19; G 1.71; H 1.58; I 1.54; K 2.66; L 2.06; M 2.39; N 2; P 1.96; Q 2.12; S 1.85; T 2.13; V 2; W 4.03; Y 2.41
W17: A 2.35; C 2.3; D 2.4; E 3.22; F 2.81; G 2.52; H 2.69; I 2.14; K 2.94; L 2.96; M 2.31; N 2.8; P 3.13; Q 2.71
